Data published in the RNAGym collection of RNA variant scans (doi:10.1073/pnas.2313332121).

B1: TPR t1 (parent)
chain: GACCAAUCUGCCCUCAGAGCUCGAGAACAUCUUCGGAUGCAGAGGAGGCAGGCUUCGGUGGCGCGAUAGCGCCAACGUCCUCAACCUCCAAUGCAUCCCACCACAUGAUGAUGCCUGAAGAGCCUUGGUUUUUUG

Variants of: B1
Test: polymerase ribozyme fitness, log enrichment relative to wild type (log ratio); higher = more active; in vitro selection for triplet polymerase activity
Outline: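 Mutant libraries of both subunits of a heterodimeric triplet polymerase ribozyme were PCR-built, transcribed, and selected once in triplicate, with frozen incubation at −7 °C and capture of gel-excised extended constructs on streptavidin beads before RT-PCR. Illumina sequencing of input and output libraries was filtered to genotypes with ≥10 input reads and ≥1 read per output. Fitness is the logarithm of genotype enrichment over wild-type enrichment, using inverse-variance-weighted replicate averages. The logarithm is base 2.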

Row | Variant | polymerase ribozyme fitness (log ratio)
1 | A84U C101A U116G A121U | -0.796
2 | C86G G120C | 0.661
3 | A84C U96C | -0.0472
4 | U87C C114U | -1.5
5 | C85A G107A U112G C114U G120U | -7.47
6 | A83U A91C | -0.743
7 | C85G G110A | -3.38
8 | C88A G107U | -4.63
9 | C85G U112A U126A | -1.28
10 | A83G C86G A91C C94U U130A | -3.59
11 | C86G C94U G110A U129A | -4.63
12 | C85U U92C G127U G128A | -6.04
13 | U87A C94A | -0.438
14 | U87A C102A | -2.11
15 | U87G U96G C99U | -2.81
16 | U87A G128U | -2.2
17 | C85U A111U G122U | -4.09
18 | C86G A90C U96C U112A C124A | -1.78
19 | C82U C88A A100U U112C | 0.47
20 | A83C U106A C123U | 1.46
21 | C88G U96G | -0.738
22 | C86G A103G | -5.43
23 | C85G G120A | -1.01
24 | C88A A100U C115U | -3.24

Row | Variant | polymerase ribozyme fitness (log ratio)
25 | A83U U96A | -0.525
26 | A84U C124U | 0.806
27 | C88A C101G A119U | -3.66
28 | C88A G113A | -1.6
29 | C86G C115U | -2.67
30 | C88G A111C | 0.0984
31 | C86G C97U C115G | -4.24
32 | A83G G120U | -0.6
33 | A83C G128C | -2.09
34 | U87A C104G A111U | -3.77
35 | U87G G110U | -0.69
36 | U87G G110A | -0.698
37 | C88A C98A C124G | -3.46
38 | A84C U130A | -0.44
39 | A83C G110C G120C | -5.9
40 | C82U A83G C101U | -0.587
41 | C82U G110A C115G | -5.29
42 | A83C C104A C115U | -4.27
43 | A84G G120A C123A | -0.958
44 | C85G C89U | -0.78
45 | C85A C88U | -2.64
46 | U87A C89A A91C A95G G113C | -2.9
47 | A84G G113U G135A | -4.51
48 | A84C C94A | -1.23

Row | Variant | polymerase ribozyme fitness (log ratio)
49 | U87C G113A | -0.807
50 | C86A G107U A121U U132C | -3.32
51 | A84G C88U C124U | 0.679
52 | A83C A119G | -0.249
53 | A83C U96G U106A A121C | 1.64
54 | C82U G113A | -1.1
55 | C85U U87A C89U | -2.94
56 | U87A C88G | -1.1
57 | C86A U109A | -5.39
58 | C82U G128A | -2.32
59 | C82U G128C | -2.07
60 | A84U C114U U126G | -6.08
61 | C82U U125A | -0.249
62 | A83G G127C | -1.88
63 | A83U C99A G117C U129G | -5.87
64 | C85G C88U C123A | -0.368
65 | C88U A100G A108G U133G | -5.29
66 | U87A C97U | -0.196
67 | A83U C98A C123A U125A | -4.08
68 | C86G C101U | -0.616
69 | C85A U87G G120U | -0.802
70 | C82U G110U | -1.15
71 | A83G C114A | -3.07
72 | C86G C98U | -1.59

Row | Variant | polymerase ribozyme fitness (log ratio)
73 | C85A C88U U96G G113U | -5.67
74 | A84U U132C | -0.244
75 | A83C U126A | -1.84
76 | A84U C102U | -2
77 | A84G G113U | -2.8
78 | C86U A95C | -1.49
79 | U87A U130A | -0.662
80 | A83C A84C G128A U131A | -2.01
81 | A83U A91U U92G A111C U130C | -3.89
82 | C88G U116G | -3.52
83 | C86G U92C | -2.6
84 | A83C C102A | -2.03
85 | C86U G117C | -3.53
86 | C88G A95C | -4.58
87 | C85A G110A | -2.98
88 | A84U U129A | -1.65
89 | U87C C89A G113A | -2.28
90 | C85U A91C | -2.1
91 | U87A G127U | -0.745
92 | A83C G117A | -1.33
93 | C85G C123U | -0.244
94 | C88A A121U | 0.835
95 | C85G G122A | -1.82
96 | C86A G93C | -2.88

Row | Variant | polymerase ribozyme fitness (log ratio)
97 | C85U C86G A118C | -3.84
98 | C86G C102A | -3.09
99 | A83C U112G | -1.81
100 | A84C C88G | -0.958
101 | C88U C101U U106G C123A | -1.23
102 | U87A A108C G110A | -6.14
103 | A83C G93A G117U | -2.52
104 | C88A C101G U116C | -2.59
105 | C86A G117U | -4.28
106 | C85G G113U | -4.31
107 | A83C G107C | -2.05
108 | C82U A95C U106A | -0.318
109 | C86A U129A | -2.31
110 | C88A G113A C124A G135U | -1.79
111 | A83C C94A | -0.753
112 | C82U C85A C86U C97A C124G | -5.65
113 | U87A A108G C114A U116A | -7.38
114 | C85G U112A C115U | -2.5
115 | C82U U134G | 0.46
116 | A84G C85A G127U | -5.16
117 | U87C G113A U133A | -0.981
118 | U87C U129C | -0.143
119 | C88A C115G G120C C123A | 0.0548
120 | U87A G117C | -3.81

Row | Variant | polymerase ribozyme fitness (log ratio)
121 | C86G G113U | -3.98
122 | C86G G113C | -2.62
123 | A83C A100U G120A U130C | -3.75
124 | U87C U109C U130C | -5.36
125 | C85G C115U | -1.86
126 | C85G C94U | -2.67
127 | C86U C104U | -0.296
128 | A84C G120A | 0.816
129 | C86A U92A C115A C123G | -2.27
130 | C88A U130A | -2.14
131 | C88A U130G | -1.33
132 | A83C G93A A111C G113U | -4.96
133 | A84U G93C | -1.39
134 | U87A C124A | 1.83
135 | A84U U112A G128U | -1.28
136 | C82U U96C C98U C115A G117C | -6.13
137 | C82U C86U G110A U133C | -0.604
138 | C82U C97A | -4.95
139 | C82U C97G | -4.81
140 | U87A G113C U130A | -2.96
141 | C85A C99U G113A | -4.82
142 | A83C A91G A111G | -1.85
143 | A83G G113U | -3.23
144 | U87C U116A A121G | 1.1

Row | Variant | polymerase ribozyme fitness (log ratio)
145 | A84U U92G | -3.25
146 | C85A U106A | -2.53
147 | U87A C97U C98U G120A | -2.92
148 | A84U U96A C99G C114A | -6.17
149 | A83U A95G C104G A105C C115A G117U | -5.76
150 | A84G G120A U130G | -0.15
151 | C85U C94G C104U | -1.9
152 | U87G U106A A108C | -2.16
153 | A84U G113A U132C G135A | -1.31
154 | A83C C114U | -1.78
155 | A83G A118U | 0.587
156 | C86G U133A | -0.824
157 | C85U C123U | -1.28
158 | C86A A100C | -1.66
159 | C88A U116G | -2.94
160 | C88A U116A | -3.6
161 | C88A U106A G128U | -3.15
162 | A84U G110C | -4.16
163 | C88G G110U | -2.67
164 | C86U U116C | -0.139
165 | A83C U109C | -4.51
166 | C86A G113C | -3.02
167 | C86U C101G | -2.55
